In patent US8821836B2, “SPARC binding peptides and uses thereof” (Abraxis BioScience, LLC, priority 2008, dated 2014):

T1: SPARC (Homo sapiens, UniProt P09486)
T1 sequence (P09486 18-303): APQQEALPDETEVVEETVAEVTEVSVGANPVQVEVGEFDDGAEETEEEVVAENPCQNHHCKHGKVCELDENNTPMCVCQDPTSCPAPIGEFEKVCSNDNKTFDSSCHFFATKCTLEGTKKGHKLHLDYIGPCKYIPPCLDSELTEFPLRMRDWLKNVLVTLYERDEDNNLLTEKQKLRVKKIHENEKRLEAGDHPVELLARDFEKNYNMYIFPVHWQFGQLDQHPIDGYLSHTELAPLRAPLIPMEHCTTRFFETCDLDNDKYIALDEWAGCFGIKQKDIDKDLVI

B1: ScFv 2-2: unique ScFv against SPARC from HuScL-2 library, among SEQ ID NOs: 113-116 (protein)
scFv: EVQLLESGGGLVQPGGSLRLSCAASGFTFSSYAMSWVRQAPGKGLEWVSHIQGQGRATYYADSVKGRFTISRDNSKNTLYLQMNSLRAEDTAVYYCAKTHGKFDYWGQGTLVTVSSGGGGSGGGGSGGGGSTDIQMTQSPSSLSASVGDRVTITCRASQSISSYLNWYQQKPGKAPKLLIYRASRLQSGVPSRFSGSGSGTDFTLTISSLQPEDFATYYCQQPSGVPTTFGQGTKVEIK
B2: ScFv 3-2: unique ScFv against SPARC from HuScL-3 library, among SEQ ID NOs: 113-116 (protein)
scFv: EIVMTQSPGTLSLSPGDRATLSCRASQSVSGYLAWYQQKPGQAPRLLIYDASNRATGIPARFSGSGSGTDFTLTISSLQAEDVAVYYCQQYYSTLPTFGQGTKLEIKRSGGSTITSYNVYYTKLSSSGTQVQLVQSGGGVVQPGRPLKLSCAASGFTFSSYAMHWVRQAPGKGLEWVAVISYDGSNKYYADSVKGRFTISRDNSKNTLYLQMNSLRAEDTAVYYCARDLSWNDAFDIWGQGTMVTVSSAS
B3: ScFv 2-1: unique ScFv against SPARC from HuScL-2 library, among SEQ ID NOs: 113-116 (protein)
scFv: EVQLLESGGGLVQPGGSLRLSCAASGFTFSSYAMSWVRQAPGKGLEWVSMITPLGSTTAYADSVKGRFTISRDNSKNTLYLQMNSLRAEDTAVYYCAKRAGVFDYWGQGTLVTVSSGGGGSGGGGSGGGGSTDIQMTQSPSSLSASVGDRVTITCRASQSISSYLNWYQQKPGKAPKLLIYRASTLQSGVPSRFSGSGSGTDFTLTISSLQPEDFATYYCQQNDSFPTTFGQGTKVEIKR

Target: T1, SPARC
Test: scFv phage display screening and soluble scFv ELISA with SPARC as antigen
Format: binding
Source text: The overall strategy was to first, screen a human antibody phage display libraries by ELISA with SPARC as antigen.
At the start, HuScL-3® was screened four rounds (three rounds with acidic elution and one round with competitive elution) and 17 positive clones were selected by phage ELISA. […] After that, the binding specificity of the two unique antibodies was validated by soluble scFv ELISA.
Next, HuScL-2® was screened for three rounds (two rounds with trypsin-digestion elution and one round with competitive elution). In the end, 30 positive clones were selected by phage ELISA. According to the sequencing results, 29 clones shared one antibody sequence and the remaining one clone encoded another unique antibody. After that, the binding specificity of these two antibodies was validated by soluble scFv ELISA as well.

Molecule	SPARC binding of scFv
B1	SPARC binding activity
B2	SPARC binding activity
B3	SPARC binding activity
